Data published in US20040248211A1, “ICAM-related protein” (priority 1992, published 2004).

Experiments:
Format in all cases: cell-based, human
J77.50.3 cells = assay: IL-2 induction in J77.50.3 lines expressing ICAM-R variants; details: for IL-2 Induction (Fold Stimulation): repeated experiments, Vector 0.52
Protocol: This dose of antibody alone provides minimal signalling for IL-2 release. The OKT3 treatment was removed and replaced with buffer alone or anti-ICAM-R (ICR-1.1) (10 ug/ml in PBS-D) and incubated at 37° C. for at least 2 hours. Monoclonal antibody coating was done in replicates of two or more wells and pooled to provide sufficient quantities of conditioned media for ELISA and/or bioassay. Two hundred fifty thousand Jurkat cells or transfectants thereof, were placed into antibody coated wells or buffer coated negative control wells in 0.1 ml of RPMI complete medium. Following incubation of about 16-24 hrs at 37° C. in a humidified atmosphere containing 5% CO2, the medium was transferred to a fresh 96 well round bottom plate, spun to pellet cells carried over and transferred to a fresh plate. Samples were frozen and stored at −70° C. IL-2 ELISAs were performed using commercially available kits (Biosource Intl. Co., Carmarille, Calif.) by making serial dilutions of the samples.
Experiments were performed using two independently isolated cell lines for each plasmid construct or the vector alone. Stable lines expressing similar levels of ICAM-R variants, as determined by indirect flow cytometry, were chosen for functional studies. Cells were costimulated with plate immobilized monoclonal antibodies ICR-1.1 and OKT3, and IL-2 release from the lines was quantitated by ELISA as previously described in Example 25C. Results were expressed as fold increase of IL-2 released from cells plated onto co-immobilized ICR-1.1 (10 μg/ml) plus OKt3 (1 μg/ml) divided by release from OKT3 ([…]) alone. The full length ICAM-R protein (haFL) gave 3.1 fold induction. The deletions gave the following fold inductions: haCTΔ505 induction was 1.5 fold, haCTΔ493 induction was 1.3 fold, haCTΔ484 was 0.8 fold. Vector control induction was 0.7 fold. […] In addition, removal of the residues 505-518 leads to the most significant reduction in co-stimulatory responsiveness. This implies that residues 505-518 play a relatively larger role in the response as compared to residues 484-505.

J77.50.3 cell lines [1] = assay: ICR-1.1 induced aggregation of J77.50.3 lines; details: for ICR-1.1 induced aggregation: ICR-1.1 10 μg/ml, 1 and 24 hours; for Percent Aggregation: repeated experiments, Vector 17
Protocol: One of these monoclonal antibodies (ICR-1.1) was used to induce aggregation of the J77.50.3 cell lines expressing either full length ICAM-R (haFL) or carboxy terminal variants of ICAM-R. ICR-1.1 was added to 200,000 cells at 10 μg/ml in 96 well plates and incubated 37° C. At 1 and 24 hours after incubation the wells were visually screened for aggregates.

J77.50.3 cell lines [2] = assay: Cell spreading on ICR-1.1 coated plastic; details: 20 minutes at 37° C.
Protocol: To ascertain additional functional consequences of ICAM-R carboxyl terminal deletions, the Jurkat cell lines expressing the. ICAM-R variants described above were tested for the ability to adhere and spread on antibody coated plastic or to undergo antibody-mediated aggregation. Bacterial petri plates were coated with 50 μl drops of ICR-1.1 or w6/32 (10 μg/ml) (anti-MHC class I isotype matched control monoclonal antibody) in PBS for 120 minutes at 37° C. The plastic was rinsed twice prior to spotting 50 μl drops of J77.50.3 cell lines. Duplicate cell lines expressing these proteins at equivalent levels were tested. After 20 minutes at 37° C. the plate was flooded with 2% glutaraldehyde in PBS and incubated for 30 minutes to fix adherent cells. Fixed cells were rinsed twice with PBS and scored visually for the ability to flatten and spread. […] Weyrich et al., J. Clin. Invest., 95: 2297-2303 (1995) recently described the effect of a ICR-1.1 coated plastic surface on normal monocytes from peripheral blood. After two hours, these cells flattened down and spread with a similar overall morphology to that seen with the haFL expressing J77.50.3 cell line.

Molecule | IL-2 Induction (Fold Stimulation) (J77.50.3 cells) [Fold] | ICR-1.1 induced aggregation (J77.50.3 cell lines [1]) | spreading on ICR-1.1 coated plastic (J77.50.3 cell lines [2]) | Percent Aggregation (J77.50.3 cell lines [1]) [%] | fold increase of IL-2 released (ICR-1.1 plus OKT3 divided by OKT3 alone) (J77.50.3 cells; vector control 0.7 fold) [fold]
Tyr479Phe: ICAM-R cytoplasmic domain point mutant (protein, UniProt P32942 30-547, looked up, variant Y479F) Intercellular adhesion …: QEFLLRVEPQNPVLSAGGSLFVNCSTDCPSSEKIALETSLSKELVASGMGWAAFNLSNVTGNSRILCSVYCNGSQITGSSNITVYRLPERVELAPLPPWQPVGQNFTLRCQVEDGSPRTSLTVVLLRWEEELSRQPAVEEPAEVTATVLASRDDHGAPFSCRTELDMQPQGLGLFVNTSAPRQLRTFVLPVTPPRLVAPRFLEVETSWPVDCTLDGLFPASEAQVYLALGDQMLNATVMNHGDTLTATATATARADQEGAREIVCNVTLGGERREARENLTVFSFLGPIVNLSEPTAHEGSTVTVSCMAGARVQVTLDGVPAAAPGQPAQLQLNATESDDGRSFFCSATLEVDGEFLHRNSSVQLRVLYGPKIDRATCPQHLKWKDKTRHVLQCQARGNPYPELRCLKEGSSREVPVGIPFFVNVTHNGTYQCQASSSRGKYTLVVVMDIEAGSSHFVPVFVAVLLTLGVVTIVLALMFVFREHQRSGSYHVREESTYLPLTSMQPTEAMGEEPSRAE | 4.9 | aggregation competent | spread onto the ICR-1.1 coated plastic surface |  | 
Ser489Ala: ICAM-R cytoplasmic domain point mutant (protein, UniProt P32942 30-547, looked up, variant S489A) Intercellular adhesion …: QEFLLRVEPQNPVLSAGGSLFVNCSTDCPSSEKIALETSLSKELVASGMGWAAFNLSNVTGNSRILCSVYCNGSQITGSSNITVYRLPERVELAPLPPWQPVGQNFTLRCQVEDGSPRTSLTVVLLRWEEELSRQPAVEEPAEVTATVLASRDDHGAPFSCRTELDMQPQGLGLFVNTSAPRQLRTFVLPVTPPRLVAPRFLEVETSWPVDCTLDGLFPASEAQVYLALGDQMLNATVMNHGDTLTATATATARADQEGAREIVCNVTLGGERREARENLTVFSFLGPIVNLSEPTAHEGSTVTVSCMAGARVQVTLDGVPAAAPGQPAQLQLNATESDDGRSFFCSATLEVDGEFLHRNSSVQLRVLYGPKIDRATCPQHLKWKDKTRHVLQCQARGNPYPELRCLKEGSSREVPVGIPFFVNVTHNGTYQCQASSSRGKYTLVVVMDIEAGSSHFVPVFVAVLLTLGVVTIVLALMYVFREHQRSGAYHVREESTYLPLTSMQPTEAMGEEPSRAE | 2.9 |  |  | 25 | 
Ser515Ala: ICAM-R cytoplasmic domain point mutant (protein, UniProt P32942 30-547, looked up, variant S515A) Intercellular adhesion …: QEFLLRVEPQNPVLSAGGSLFVNCSTDCPSSEKIALETSLSKELVASGMGWAAFNLSNVTGNSRILCSVYCNGSQITGSSNITVYRLPERVELAPLPPWQPVGQNFTLRCQVEDGSPRTSLTVVLLRWEEELSRQPAVEEPAEVTATVLASRDDHGAPFSCRTELDMQPQGLGLFVNTSAPRQLRTFVLPVTPPRLVAPRFLEVETSWPVDCTLDGLFPASEAQVYLALGDQMLNATVMNHGDTLTATATATARADQEGAREIVCNVTLGGERREARENLTVFSFLGPIVNLSEPTAHEGSTVTVSCMAGARVQVTLDGVPAAAPGQPAQLQLNATESDDGRSFFCSATLEVDGEFLHRNSSVQLRVLYGPKIDRATCPQHLKWKDKTRHVLQCQARGNPYPELRCLKEGSSREVPVGIPFFVNVTHNGTYQCQASSSRGKYTLVVVMDIEAGSSHFVPVFVAVLLTLGVVTIVLALMYVFREHQRSGSYHVREESTYLPLTSMQPTEAMGEEPARAE | 2.1 |  |  | 15 | 
Ser503Ala: ICAM-R cytoplasmic domain point mutant (protein, UniProt P32942 30-547, looked up, variant S503A) Intercellular adhesion …: QEFLLRVEPQNPVLSAGGSLFVNCSTDCPSSEKIALETSLSKELVASGMGWAAFNLSNVTGNSRILCSVYCNGSQITGSSNITVYRLPERVELAPLPPWQPVGQNFTLRCQVEDGSPRTSLTVVLLRWEEELSRQPAVEEPAEVTATVLASRDDHGAPFSCRTELDMQPQGLGLFVNTSAPRQLRTFVLPVTPPRLVAPRFLEVETSWPVDCTLDGLFPASEAQVYLALGDQMLNATVMNHGDTLTATATATARADQEGAREIVCNVTLGGERREARENLTVFSFLGPIVNLSEPTAHEGSTVTVSCMAGARVQVTLDGVPAAAPGQPAQLQLNATESDDGRSFFCSATLEVDGEFLHRNSSVQLRVLYGPKIDRATCPQHLKWKDKTRHVLQCQARGNPYPELRCLKEGSSREVPVGIPFFVNVTHNGTYQCQASSSRGKYTLVVVMDIEAGSSHFVPVFVAVLLTLGVVTIVLALMYVFREHQRSGSYHVREESTYLPLTAMQPTEAMGEEPSRAE | 1.0 |  |  | 64 | 
Ser487Ala: ICAM-R cytoplasmic domain point mutant (protein, UniProt P32942 30-547, looked up, variant S487A) Intercellular adhesion …: QEFLLRVEPQNPVLSAGGSLFVNCSTDCPSSEKIALETSLSKELVASGMGWAAFNLSNVTGNSRILCSVYCNGSQITGSSNITVYRLPERVELAPLPPWQPVGQNFTLRCQVEDGSPRTSLTVVLLRWEEELSRQPAVEEPAEVTATVLASRDDHGAPFSCRTELDMQPQGLGLFVNTSAPRQLRTFVLPVTPPRLVAPRFLEVETSWPVDCTLDGLFPASEAQVYLALGDQMLNATVMNHGDTLTATATATARADQEGAREIVCNVTLGGERREARENLTVFSFLGPIVNLSEPTAHEGSTVTVSCMAGARVQVTLDGVPAAAPGQPAQLQLNATESDDGRSFFCSATLEVDGEFLHRNSSVQLRVLYGPKIDRATCPQHLKWKDKTRHVLQCQARGNPYPELRCLKEGSSREVPVGIPFFVNVTHNGTYQCQASSSRGKYTLVVVMDIEAGSSHFVPVFVAVLLTLGVVTIVLALMYVFREHQRAGSYHVREESTYLPLTSMQPTEAMGEEPSRAE | 2.0 |  |  | 61 | 
Tyr498Phe: ICAM-R cytoplasmic domain point mutant (protein, UniProt P32942 30-547, looked up, variant Y498F) Intercellular adhesion …: QEFLLRVEPQNPVLSAGGSLFVNCSTDCPSSEKIALETSLSKELVASGMGWAAFNLSNVTGNSRILCSVYCNGSQITGSSNITVYRLPERVELAPLPPWQPVGQNFTLRCQVEDGSPRTSLTVVLLRWEEELSRQPAVEEPAEVTATVLASRDDHGAPFSCRTELDMQPQGLGLFVNTSAPRQLRTFVLPVTPPRLVAPRFLEVETSWPVDCTLDGLFPASEAQVYLALGDQMLNATVMNHGDTLTATATATARADQEGAREIVCNVTLGGERREARENLTVFSFLGPIVNLSEPTAHEGSTVTVSCMAGARVQVTLDGVPAAAPGQPAQLQLNATESDDGRSFFCSATLEVDGEFLHRNSSVQLRVLYGPKIDRATCPQHLKWKDKTRHVLQCQARGNPYPELRCLKEGSSREVPVGIPFFVNVTHNGTYQCQASSSRGKYTLVVVMDIEAGSSHFVPVFVAVLLTLGVVTIVLALMYVFREHQRSGSYHVREESTFLPLTSMQPTEAMGEEPSRAE | 1.6 | aggregation competent | spread onto the ICR-1.1 coated plastic surface |  | 
haFL: HA-tagged full length ICAM-R expressed in J77.50.3 cells (protein, UniProt P32942 1-547, looked up, full-length HA tag, HA-tagged full length ICAM-R expressed in J77.50.3 cells) MATMVPSVLWPRACWTLLVCCLLTPGVQGQEFLLRVEPQNPVLSAGGSLFVNCSTDCPSSEKIALETSLSKELVASGMGWAAFNLSNVTGNSRILCSVYCNGSQITGSSNITVYRLPERVELAPLPPWQPVGQNFTLRCQVEDGSPRTSLTVVLLRWEEELSRQPAVEEPAEVTATVLASRDDHGAPFSCRTELDMQPQGLGLFVNTSAPRQLRTFVLPVTPPRLVAPRFLEVETSWPVDCTLDGLFPASEAQVYLALGDQMLNATVMNHGDTLTATATATARADQEGAREIVCNVTLGGERREARENLTVFSFLGPIVNLSEPTAHEGSTVTVSCMAGARVQVTLDGVPAAAPGQPAQLQLNATESDDGRSFFCSATLEVDGEFLHRNSSVQLRVLYGPKIDRATCPQHLKWKDKTRHVLQCQARGNPYPELRCLKEGSSREVPVGIPFFVNVTHNGTYQCQASSSRGKYTLVVVMDIEAGSSHFVPVFVAVLLTLGVVTIVLALMYVFREHQRSGSYHVREESTYLPLTSMQPTEAMGEEPSRAE | 5.4 | aggregation competent | spread onto the ICR-1.1 coated plastic surface | 55 | 3.1
